The chains are these.
B1: RNA-binding E3 ubiquitin-protein ligase MEX3C, residues 325 to 391; numbered along this chain, Q5U5Q3 (parent)
chain: GQTTVQVRVPYRVVGLVVGPKGATIKRIQQQTHTYIVTPSRDKEPVFEVTGMPENVDRAREEIEMHI

± gives the uncertainty stated by the source.

The data set covers variants of B1. The data set is described as follows: abundance fitness (aPCA) (normalised: wild type 0, dead -1); higher = more abundant; growth selection in yeast, the domain comes from the species named. The note with it: Homo sapiens.
On to GQTTVQVRVPYRVVGLVVGPKGATIKRIQQQTHTYIVTPSRDKETVFEVTGMPENVDRAREEIEMHI [P45T], for which the abundance fitness was -0.493 ± 0.12. Consider GQTTVQVRVPYRVVGLVVGPKGATIKRIQQQTHTYIVTPSRDKEVVFEVTGMPENVDRAREEIEMHI [P45V], for which the abundance fitness is -0.919 ± 0.17. To GQTTVQVRVPYRVVGLVVGPKGATIKRIQQQTHTYIVTPSRDKEEVFEVTGMPENVDRAREEIEMHI [P45E] belongs -0.375 ± 0.09; to GQTTVQVRVPYRVVGLVVGPKGATIKRIQQQTHTYIVTPSRDKECVFEVTGMPENVDRAREEIEMHI [P45C], -0.47 ± 0.092; to GQTTVQVRVPYRVVGLVVGPKGATIKRIQQQTHTYIVTPSRDKELVFEVTGMPENVDRAREEIEMHI [P45L], -0.479 ± 0.13. In the case of GQTTVQVRVPYRVVGLVVGPKGATIKRIQQQTHTYIVTPSRDKEQVFEVTGMPENVDRAREEIEMHI [P45Q], the abundance fitness is -0.458 ± 0.13.

In the case of GQTTVQVRVPYRVVGLVVGPKGATIKRIQQQTHTYIVTPSRDKEHVFEVTGMPENVDRAREEIEMHI [P45H], the abundance fitness was -0.502 ± 0.11. To GQTTVQVRVPYRVVGLVVGPKGATIKRIQQQTHTYIVTPSRDKEMVFEVTGMPENVDRAREEIEMHI [P45M] belongs -0.467 ± 0.16; to GQTTVQVRVPYRVVGLVVGPKGATIKRIQQQTHTYIVTPSRDWEPVFEVTGMPENVDRAREEIEMHI [K43W], -0.435 ± 0.072; to GQTTVQVRVPYRVVGLVVGPKGATIKRIQQQTHTYIVTPSRDNEPVFEVTGMPENVDRAREEIEMHI [K43N], -0.093 ± 0.11.

As for GQTTVQVRVPYRVVGLVVGPKGATIKRIQQQTHTYIVTPSRDYEPVFEVTGMPENVDRAREEIEMHI [K43Y], the abundance fitness is -0.46 ± 0.15.

Take GQTTVQVRVPYRVVGLVVGPKGATIKRIQQQTHTYIVTPSRDSEPVFEVTGMPENVDRAREEIEMHI [K43S]: the abundance fitness came out at 0.12 ± 0.048. To GQTTVQVRVPYRVVGLVVGPKGATIKRIQQQTHTYIVTPSRDREPVFEVTGMPENVDRAREEIEMHI [K43R] belongs -0.133 ± 0.039; to GQTTVQVRVPYRVVGLVVGPKGATIKRIQQQTHTYIVTPSRDQEPVFEVTGMPENVDRAREEIEMHI [K43Q], -0.059 ± 0.072; to GQTTVQVRVPYRVVGLVVGPKGATIKRIQQQTHTYIVTPSRDPEPVFEVTGMPENVDRAREEIEMHI [K43P], -0.565 ± 0.1.

Regarding GQTTVQVRVPYRVVGLVVGPKGATIKRIQQQTHTYIVTPSRDTEPVFEVTGMPENVDRAREEIEMHI [K43T], the abundance fitness was -0.05 ± 0.066. For GQTTVQVRVPYRVVGLVVGPKGATIKRIQQQTHTYIVTPSRDVEPVFEVTGMPENVDRAREEIEMHI [K43V], the abundance fitness is -0.423 ± 0.069. In the case of GQTTVQVRVPYRVVGLVVGPKGATIKRIQQQTHTYIVTPSRDKEPVFGVTGMPENVDRAREEIEMHI [E48G] it was -0.748 ± 0.067. To GQTTVQVRVPYRVVGLVVGPKGATIKRIQQQTHTYIVTPSRDKEPVFFVTGMPENVDRAREEIEMHI [E48F] belongs -0.068 ± 0.12; to GQTTVQVRVPYRVVGLVVGPKGATIKRIQQQTHTYIVTPSRDKEPVFCVTGMPENVDRAREEIEMHI [E48C], -0.357 ± 0.1; to GQTTVQVRVPYRVVGLVVGPKGATIKRIQQQTHTYIVTPSRDKEPVFAVTGMPENVDRAREEIEMHI [E48A], -0.356 ± 0.064. Turning to GQTTVQVRVPYRVVGLVVGPKGATIKRIQQQTHTYIVTPSRDKEPVFDVTGMPENVDRAREEIEMHI [E48D], the abundance fitness is -0.534 ± 0.14. In the case of GQTTVQVRVPYRVVGLVVGPKGATIKRIQQQTHTYIVTPSRDKEPIFEVTGMPENVDRAREEIEMHI [V46I] it was -0.093 ± 0.072. For the variant GQTTVQVRVPYRVVGLVVGPKGATIKRIQQQTHTYIVTPSRDKEPQFEVTGMPENVDRAREEIEMHI [V46Q], the abundance fitness is -0.621 ± 0.13.

Turning to GQTTVQVRVPYRVVGLVVGPKGATIKRIQQQTHTYIVTPSRDKEPRFEVTGMPENVDRAREEIEMHI [V46R], the abundance fitness is -0.607 ± 0.078. To GQTTVQVRVPYRVVGLVVGPKGATIKRIQQQTHTYIVTPSRDKEPFFEVTGMPENVDRAREEIEMHI [V46F] belongs -0.503 ± 0.16; to GQTTVQVRVPYRVVGLVVGPKGATIKRIQQQTHTYIVTPSRDKEPMFEVTGMPENVDRAREEIEMHI [V46M], -0.361 ± 0.081. In the case of GQTTVQVRVPYRVVGLVVGPKGATIKRIQQQTHTYIVTPSRDKEPCFEVTGMPENVDRAREEIEMHI [V46C] it was -0.645 ± 0.14; in that of GQTTVQVRVPYRVVGLVVGPKGATIKRIQQQTHTYIVTPSRDKEPSFEVTGMPENVDRAREEIEMHI [V46S], -0.774 ± 0.11; in that of GQTTVQVRVPYRVVGLVVGPKGATIKRIQQQTHTYIVTPSRDKEPLFEVTGMPENVDRAREEIEMHI [V46L], -0.332 ± 0.061.

Consider GQTTVQVRVPYRVVGLVVGPKGATIKRIQQQTHTYIVTPSRDKEPWFEVTGMPENVDRAREEIEMHI [V46W], for which the abundance fitness was -0.662 ± 0.099. To GQTTVQVRVPYRVVGLVVGPKGATIKRIQQQTHTYIVTPSRDKEPEFEVTGMPENVDRAREEIEMHI [V46E] belongs -0.767 ± 0.11; to GQTTVQVRVPYRVVGLVVGPKGATIKRIQQQTHTYIVTPSRDKEPYFEVTGMPENVDRAREEIEMHI [V46Y], -0.146 ± 0.11; to GQTTVQVRVPYRVVGLVVGPKGATIKRIQQQTHTYIVTPSRDKEPGFEVTGMPENVDRAREEIEMHI [V46G], -0.7 ± 0.07.

Consider GQTTVQVRVPYRVVGLVVGPKGATIKRIQQQTHTYIVTPSRDKEPKFEVTGMPENVDRAREEIEMHI [V46K], for which the abundance fitness was -0.321 ± 0.1. With GQTTVQVRVPYRVVGLVVGPKGATIKRIQQQTHTYIVTPSRDKEPAFEVTGMPENVDRAREEIEMHI [V46A], the abundance fitness was -0.676 ± 0.083. In the case of GQTTVQVRVPYRVVGLVVGPKGATIKRIQQQTHTYIVTPSRDKEPTFEVTGMPENVDRAREEIEMHI [V46T] it was -0.526 ± 0.1; in that of GQTTVQVRVPYRVVGLVVGPKGATIKRIQQQTHTYIVTPSRDKEPPFEVTGMPENVDRAREEIEMHI [V46P], -0.66 ± 0.1.

For GQTTVQVRVPYRVVGLVVGPKGATIKRIQQQTHTYIVTPSRDKEPNFEVTGMPENVDRAREEIEMHI [V46N], the abundance fitness was -0.62 ± 0.24. In the case of GQTTVQVRVPYRVVGLVVGPKGATIKRIQQQTHTYIVTPSRDKEPHFEVTGMPENVDRAREEIEMHI [V46H] it was -0.579 ± 0.13.

Source of the values: the Human Domainome abundance scans (Beltran et al. 2025).
